The values below come from a protein production outcome set (Wang et al. 2014).
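Also: failed if final PepcDB status was selected cloned or expressed and not failed if soluble or beyond.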

This data set can be described thus: label from the status in PepcDB records.
On to “GRARVKVEGVFYNPRMRFCRDLDMLVFATMDSKEYFDALSASGIRGIRAALEAGKKAVFNDVSPKAVKVIEENLRENGVSGEVINGDAAAVMRQRAFEHIDIDPFGSPAPFMDSACFSAKRYLSVTATDTAALCGSATNSGLKKYGAFAVKTDVYHEVGLRMLIGFVVREATKYEKALFPLISWVREHYYRVHFKIKKSTAMSAKVYEKMGYLAYCSTCLRKKVLGMGEGAERCECGGKFSLIGPIWLGELKQRDFAEKVAEKAEGKLRAFLEKILAEIDAPTAYSLPALAKIHSLTLPPTDVVVEELKKLGYEASRTHYCGFCVKTDADRDVVVKILRSRK”, for which the protein production entry is recorded as “failed”.
The value for “GRGAFGVVCKAKWRAKDVAIKQIESESERKAFIVELRQLSRVNHPNIVKLYGACLNPVCLVMEYAEGGSLYNVLHGAEPLPYYTAAHAMSWCLQCSQGVAYLHSMQPKALIHRDLKPPNLLLVAGGTVLKICDFGTACDIQTHMTNNKGSAAWMAPEVFEGSNYSEKCDVFSWGIILWEVITRRKPFDEIGGPAFRIMWAVHNGTRPPLIKNLPKPIESLMTRCWSKDPSQRPSMEEIVKIMTHLMRYFPGADEPLQYPCQYSDEGQSNSATSTGSFMDIASTNTSNKSDTNMEQVPATNDTIKRLESKLLKNQAKQQ” was “failed”; that for “GRKYLVNFSDIYYIESVDKKTFVYLADEIYQTDLRLYQLLHDLQHDGFVQISKSCLLNINVLENIRPLFNSRMEATLLNGERVIVNRRYLPDVKEALKGIQ” was “failed”; that for “GSAYTPLSEDESHRIFELVKEIDTSNQDASKSEKILQQRLDLLHQVRLRYFTPREVARLMSFPENFEFPPETTNRQKYRLLGNSINVKVVGELIKLLTIK” was “failed”.
Turning to “GSSGSSGHADEVWPGLYLGDQDMANNRRELRRLGITHVLNASHSRWRGTPEAYEGLGIRYLGVEAHDSPAFDMSIHFQTAADFIHRALSQPGGKILVHCAVGVSRSATLVLAYLMLYHHLTLVEAIKKVKDHRGIIPNRGFLRQLLALDRRLRQGLEA”, the protein production entry is listed as “not failed”.
The value for “GTGLHCLSIERDLMKKFHLKDAFIIPTPVNNYHASLGKAAAQYLETHLQQGDLLGIGWGETISKMLENIHFETSINLSIVTLTGGVNHYLSRKQNYLHYMQGDLHIIPTPFLASTTEMAQSILSEPSVKDMLHVASLAHTAIVGIGGLSQDATIVKEEKLTLREMTYIRSQNGAGDILGQFYNTNGDLLELSHHNRLIGTPLSILRNMNHVVGVAGGTEKIDAIYGALKGKFIHTLITDEETALSLLRKDGDC” was “failed”; that for “GTLQDGAVDWGVRRTFREYVTGDIAHGEWALTAGAQDGGALFRFPGGEGTYEDGDLNAAFRGTVRFTGAHGLDLSLGNVRTVVEDGRGTLYADVTSPDVKEAKVPLVTFTAGEPKPAGGLVKVTEAPAKLTARGAKAFGGMYRAGTEMDPVSLAVAL” was “failed”.
Then “GTVSATSPNKCKRPMNAFMLFAKKYRVEYTQMYPGKDNRAISVILGDRWKKMKNEERRMYTLEAKALAEEQKRLNPDCWK”, with “not failed”.
Then “GVKCEPFEALTVDVEDAHQGGVMEELGRRKGDLQDMQPDGRGRTRLEYIIPARGLIGFQNEFLTLTRGTGLMSHIFHEYAPLREGSIGERRNGVLISQDNGDAVAYALWKLQDRGRMFVSPGEPLYEGMI”, with “failed”; and “GYNRRFDAGFVAARAAVASGELGALHTVRSTTLDPAPPPPAYVAASGGIFRDCSVHDFDIIRWVTGREVVEVYATGGNRGADYIAAAGDADTTAAVLTLDDGTLAVVSNSRHNARGHDVRMELHGFRDSIAVGLEDRLPLRSVEPGTSFPAGTPHDFFMDRFAAAYRAELTAFTEVVAGRRPSPCTVADALEAGWIAEACTLSLHSHRPVTVEEVRRQS”, with “failed”.
As for “HARPAGQLKVHSMPGVGQHYVIDAIARYRRNHPDVAFDLTMTHRVPDLLEEGFDVSIVLASELADSGFVSQRLGITYSIVCASPEYVKTFGMAHKPADLLNHACLRLVSPVFP”, the protein production entry was “failed”.
Then “HFNVLADTPSGLVPLHLRSPQVPAAQQMLNFPEKNKEKPVDLQNFGLRTDIYSKKTLAKSKGASAGREWTEQETLLLLEALEMYKDDWNKVSEHVGSRTQDECILHFLRLPIEDPYLENSDASLGPLAYQPVPFSQSGNPVMSTVAFLASVVDPRVASAAAKAALEEFSRVREEVPLELVEAHVKKVQEAARASGKVDPTYGLESSCIAGTGPDEPEKLEGAEEEKMEADPDGQQPEKAENKVENETDEGDKAQDGENEKNSEKEQDSEVSEDTKSEEKETEENKELTDTCKERESDTGKKKVEHEISEGNVATAAAAALASAATKAKHLAAVEERKIKSLVALLVETQMKKLEIKLRHFEELETIMDREKEALEQQRQQLLTERQNFHMEQLKYAELRARQQMEQQQHGQNPQQAHQHSGGPGLAPLGAAGHPGMMPHQQPPPYPLMHHQMPPPHPPQPGQIPGPGSMMPGQHMPGRMIPTVAANIHPSGSGPTPPGMPPMPGNILGPRVPLTAPNGMYPPPPQQQPPPPPPADGVPPPPAPGPPASAAP”, with “not failed”; and “HITLNYLSKTLGMHQTINVILPEDKSYFDTNENAKPLKTMLLLHGLSSDTSSYMRYTSIERYANTHQLAVVMPNADHSFYSNMAYGHSYYDYILEVYDYVHQILPLSKKREDNFIAGHSMGGYGAIKFALTQSYRFSKAAMLSAPYDVSMIGQYQWYDFTPEAIVGNTQHVAGTSFDPYYLVEQAIDNGQALPQLYITCGTEDELYQGNIDFVNYLDEKGIPYQFKKAPGNHDYAFWDKAIEDVIDRF”, with “failed”; and “HPMCKEHEDEKINIYCLTCEVPTCSMCKVFGIHKACEVAPLQSVFQGQKTE”, with “not failed”.
The value for “HQQQRSVMTEEYKVPDGMVGFIIGRGGEQISRIQQESGCKIQIAPDSGGLPERSCMLTGTPESVQSAKRLLDQIVEKGR” was “not failed”; that for “HTETGNIWTHLLGFVLFLFLGILTMLRPNMYFMAPLQEKVVFGMFFLGAVLCLSFSWLFHTVYCHSEKVSRTFSKLDYSGIALLIMGSFVPWLYYSFYCSPQPRLIYLSIVCVLGISAIIVAQWDRFATPKHRQTRAGVFLGLGLSGVVPTMHFTIAEGFVKATTVGQMGWFFLMAVMYITGAGLYAARIPERFFPGKFDIWFQSHQIFHVLVVAAAFVHFYGVSNLQEFRYGLEGGCTDDTLL” was “failed”; that for “HYGEEPELVPSYTIFFSGCNFRCVFCQNWDISQFRVGVELLPEYLALKIERAYRFGARNVNFVGGEPTPNLPYILETLRYVNVPIPVVWNSNMYMSEEAMKLLDGIVD” was “failed”.
Then “IAKNNYKELIQNIIEESYTDSQFTLSVLSEKLDLSSGYLSIMFKKNFGIPFQDYLLQKRMEKAKLLLLTTELKNYEIAEQVGFEDVNYFITKFKKYYQITPKQYREMVLKNE”, with “failed”.
Regarding “IARLDWSATPLGESGHWPQSLRTAVDIVIHSPMPMLLLWGAELTQIYNDGFALLAGNKHPSAFGHPAHLTWPELMDFTDPIYRAVLNGQVRTFSEQRFSLQRTNGSEYDLWLDLTYSPIRNERGDVAGILVTAIETNERRRIALELQQR”, the protein production entry is “failed”.
For the sequence “IEGLFIFDRNQKCVYANHIALNLFGYTLEEVHSKSILDFIALGFRNKVKRFSQNRDQPPYEVLGIKNDGSLFPIMIRGKAIELG”, the protein production result is listed as “failed”.
Take “IFRVLDDVDTAVFNRVGTLTDGEMTVETVTADKGEDPELVLRVAGALAMESHHAISKALVKASREARDTGAGGEDVPHWIEVGNVEITEAGSFQATIELPLIKPSGEKIMRTTEALLWRPRSMTEVREHLSPRLVAAATSGGAPLIVRWKGKDRGVITLSDHVRSDSSDAIIAIEEQGIETMMLSRDTYPVARRYADSLGITHVLAGIAPGKKAQVVRAVHTRGSTVAMIGDESVMDCLKVADVGVLMGVDRPSDLRDDSDDPAADVVVMREEVMSVPTLFKLARRYAKLVNGNIALAWIYNGVAM”: the protein production entry is listed as “failed”.
The value for “IHYAGKILQERLVNPPSLMELAREIGINDHKLKVGFRQVFKTTVFGYLHDQRIERSRQLLESGEMTVTGAASAVGFANRGHFAAAFRRKFGINPSLYARQRKL” was “failed”.
